For this assay, the target named is CXCR2-4A/IL (S342A/S346A/S347A/S348A and I323A/L324A) (human). The assay is described as follows: co-IP.

β-arrestin1, sequence (P49407 whole entry): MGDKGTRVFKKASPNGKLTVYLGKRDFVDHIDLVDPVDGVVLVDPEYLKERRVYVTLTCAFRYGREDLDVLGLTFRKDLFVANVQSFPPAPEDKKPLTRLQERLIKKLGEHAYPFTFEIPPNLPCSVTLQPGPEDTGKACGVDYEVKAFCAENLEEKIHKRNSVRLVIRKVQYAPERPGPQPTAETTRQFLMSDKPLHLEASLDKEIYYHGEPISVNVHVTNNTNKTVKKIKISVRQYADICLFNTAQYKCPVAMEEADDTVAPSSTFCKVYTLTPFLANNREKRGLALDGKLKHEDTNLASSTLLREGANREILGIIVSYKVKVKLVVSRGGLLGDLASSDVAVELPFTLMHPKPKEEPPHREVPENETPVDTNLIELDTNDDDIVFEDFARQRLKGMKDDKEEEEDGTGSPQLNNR

For “β-arrestin1 (from UniProt P49407 1-418) (natural protein)”, the reduction of binding (co-precipitated β-arrestin1) stood at 90%.

The values above are taken from PMC3966550.
